Assay results taken from paper PMC8509488.

Legend:
[1] = biological target: CgHspB1 N-terminal deletion mutant (CgHspB1DeltaN), N-terminal 30 amino acids deleted, from pET23b (Chinese hamster); experiment: SEC; HPLC-SEC, SB-804HQ gel-filtration column, sample heated at the specified temperature for 30 min, buffer B (50 mM Tris-HCl pH 7.5, 0.1 mM EDTA, 150 mM NaCl) with or without 20% ethylene glycol, 1.0 mL/min
[2] = biological target: CgHspB1C145S, CgHspB1 mutant with Cys145 replaced by Ser (Chinese hamster); experiment: AUC; sedimentation velocity, 40 °C, 0.5 mg/mL, with DTT
[3] = biological target: CgHspB1C145S, CgHspB1 mutant with Cys145 replaced by Ser (Chinese hamster); experiment: AUC; sedimentation velocity, 40 °C, 0.5 mg/mL, without DTT (series with and without DTT)
[4] = biological target: CgHspB1S15D, phosphorylation mimic mutant of CgHspB1 (Ser15 replaced with Asp) (Chinese hamster); experiment: AUC; sedimentation velocity, Rayleigh interference optics, 40,000 rpm, buffer containing 20% ethylene glycol; 4 °C, 0.1 mg/mL
[5] = biological target: CgHspB1S15D, phosphorylation mimic mutant of CgHspB1 (Ser15 replaced with Asp) (Chinese hamster); experiment: AUC; sedimentation velocity, Rayleigh interference optics, 40,000 rpm, buffer containing 20% ethylene glycol; 25 °C, 0.5 mg/mL
[6] = biological target: CgHspB1S15D, phosphorylation mimic mutant of CgHspB1 (Ser15 replaced with Asp) (Chinese hamster); experiment: AUC; sedimentation velocity, Rayleigh interference optics, 40,000 rpm, buffer containing 20% ethylene glycol; 25 °C, 0.1 mg/mL
[7] = biological target: CgHspB1S15D, phosphorylation mimic mutant of CgHspB1 (Ser15 replaced with Asp) (Chinese hamster); experiment: AUC; sedimentation velocity, Rayleigh interference optics, 40,000 rpm, buffer containing 20% ethylene glycol; 40 °C, 0.1 mg/mL
[8] = biological target: CgHspB1S15D, phosphorylation mimic mutant of CgHspB1 (Ser15 replaced with Asp) (Chinese hamster); experiment: AUC; sedimentation velocity, Rayleigh interference optics, 40,000 rpm, buffer containing 20% ethylene glycol; 40 °C, 1.5 mg/mL
[9] = biological target: CgHspB1S15D, phosphorylation mimic mutant of CgHspB1 (Ser15 replaced with Asp) (Chinese hamster); experiment: AUC; sedimentation velocity, Rayleigh interference optics, 40,000 rpm, buffer containing 20% ethylene glycol; 25 °C, 1.5 mg/mL
[10] = biological target: CgHspB1S15D, phosphorylation mimic mutant of CgHspB1 (Ser15 replaced with Asp) (Chinese hamster); experiment: AUC; sedimentation velocity, Rayleigh interference optics, 40,000 rpm, buffer containing 20% ethylene glycol; 4 °C, 1.5 mg/mL
[11] = biological target: CgHspB1S15D, phosphorylation mimic mutant of CgHspB1 (Ser15 replaced with Asp) (Chinese hamster); experiment: AUC; sedimentation velocity, Rayleigh interference optics, 40,000 rpm, buffer containing 20% ethylene glycol; 40 °C, 0.5 mg/mL
[12] = biological target: CgHspB1S15D, phosphorylation mimic mutant of CgHspB1 (Ser15 replaced with Asp) (Chinese hamster); experiment: AUC; sedimentation velocity, Rayleigh interference optics, 40,000 rpm, buffer containing 20% ethylene glycol; 4 °C, 0.5 mg/mL
[13] = biological target: HspB1 from Chinese hamster, wild type (CgHspB1WT) (Chinese hamster); experiment: AUC; sedimentation velocity, Rayleigh interference optics, 40,000 rpm, buffer containing 20% ethylene glycol; 25 °C, 0.5 mg/mL
[14] = biological target: HspB1 from Chinese hamster, wild type (CgHspB1WT) (Chinese hamster); experiment: AUC; sedimentation velocity, Rayleigh interference optics, 40,000 rpm, buffer containing 20% ethylene glycol; 40 °C, 1.5 mg/mL
[15] = biological target: HspB1 from Chinese hamster, wild type (CgHspB1WT) (Chinese hamster); experiment: AUC; sedimentation velocity, Rayleigh interference optics, 40,000 rpm, buffer containing 20% ethylene glycol; 25 °C, 1.5 mg/mL

A stoichiometry N [1] of 6 was found for “CgHspB1 N-terminal deletion mutant (CgHspB1DeltaN), N-terminal 30 amino acids deleted, from pET23b (domain or fragment)” in this work.

A stoichiometry N ([2]; c(s20,w) peak a) of 21, a stoichiometry N ([2]; c(s20,w) peak b) of 25 and a stoichiometry N ([2]; c(s20,w) peak c) of 32 were found for “CgHspB1C145S, CgHspB1 mutant with Cys145 replaced by Ser (natural protein)” in this work. It also gave a stoichiometry N ([3]; c(s20,w) peak a) of 21, a stoichiometry N ([3]; c(s20,w) peak b) of 25 and a stoichiometry N ([3]; c(s20,w) peak c) of 33.

A stoichiometry N [4] of 19, a stoichiometry N [5] of 19 and a stoichiometry N [6] of 18 were found for “CgHspB1S15D, phosphorylation mimic mutant of CgHspB1 (Ser15 replaced with Asp) (natural protein)” in this work. It also gave a stoichiometry N [7] of 26, a stoichiometry N [8] of 27 and a stoichiometry N [9] of 19. It also gave a stoichiometry N [10] of 18, a stoichiometry N [11] of 26 and a stoichiometry N [12] of 19.

A stoichiometry N ([13]; c(s20,w) peak b) of 6, a stoichiometry N ([13]; c(s20,w) peak c) of 18 and a stoichiometry N ([14]; c(s20,w) peak a) of 20 were found for “HspB1 from Chinese hamster, wild type (CgHspB1WT) (natural protein)” in this work. The stoichiometry N ([14]; c(s20,w) peak b) was 27, the stoichiometry N ([14]; c(s20,w) peak c) was 38 and the stoichiometry N ([15]; c(s20,w) peak a) was 20. For the same substance, the stoichiometry N ([15]; c(s20,w) peak b) was 30.
